Measured values published in patent US20230183352A1 (published 2023).

What was measured:
[1] = target: T1, Claudin 18.2 (CLDN18.2), expressed on CHOS-CLDN 18.2 / HEK293-CLDN 18.2 / HCC827-CLDN 18.2 cells (human, UniProt P56856-2 1-261); assay: FACS, CHOS-CLDN18.2 cells, 1.250 µg/ml
T1 construct: whole, on cells; The species is not repeated for the CHOS-CLDN 18.2 cells; also called claudin-18A2
Experimental: (§1) The initial concentration of the antibody was 20 μg/ml, it was diluted at 1:4, and incubated at 4° C. for 60 min.

[2] = target: T1, Claudin 18.2 (CLDN18.2), expressed on …; assay: FACS, CHOS-CLDN18.2 cells, 1.250 µg/ml; remark: listed apart in the source
Experimental: as §1

[3] = target: T1, Claudin 18.2 (CLDN18.2), expressed on …; assay: FACS, CHOS-CLDN18.2 cells, 1.250 µg/ml; remark: listed apart in the source
Experimental: as §1

[4] = target: T1, Claudin 18.2 (CLDN18.2), expressed on …; assay: FACS, CHOS-CLDN18.2 cells, 0 µg/ml (background)
Experimental: as §1

[5] = target: T1, Claudin 18.2 (CLDN18.2), expressed on …; assay: FACS, CHOS-CLDN18.2 cells, 0.020 µg/ml
Experimental: as §1

[6] = target: T1, Claudin 18.2 (CLDN18.2), expressed on …; assay: FACS, CHOS-CLDN18.2 cells, 5 µg/ml
Experimental: as §1

[7] = target: T1, Claudin 18.2 (CLDN18.2), expressed on …; assay: FACS, CHOS-CLDN18.2 cells, 20 µg/ml
Experimental: as §1

[8] = target: T1, Claudin 18.2 (CLDN18.2), expressed on …; assay: FACS, CHOS-CLDN18.2 cells, 1.250 µg/ml; remark: listed apart in the source
Experimental: as §1

[9] = target: T1, Claudin 18.2 (CLDN18.2), expressed on …; assay: FACS, CHOS-CLDN18.2 cells, 0.313 µg/ml
Experimental: as §1

[10] = target: T1, Claudin 18.2 (CLDN18.2), expressed on …; assay: FACS, CHOS-CLDN18.2 cells
Experimental: as §1

[11] = target: T1, Claudin 18.2 (CLDN18.2), expressed on …; assay: FACS, CHOS-CLDN18.2 cells, 0.005 µg/ml
Experimental: as §1

[12] = target: T1, Claudin 18.2 (CLDN18.2), expressed on …; assay: FACS, CHOS-CLDN18.2 cells, 0.005 µg/ml; remark: listed apart in the source
Experimental: as §1

[13] = target: T1, Claudin 18.2 (CLDN18.2), expressed on …; assay: FACS, CHOS-CLDN18.2 cells, 5 µg/ml; remark: listed apart in the source
Experimental: as §1

[14] = target: T1, Claudin 18.2 (CLDN18.2), expressed on …; assay: FACS, CHOS-CLDN18.2 cells, 5 µg/ml; remark: listed apart in the source
Experimental: as §1

[15] = target: T1, Claudin 18.2 (CLDN18.2), expressed on …; assay: FACS, CHOS-CLDN18.2 cells, 0.005 µg/ml; remark: listed apart in the source
Experimental: as §1

[16] = target: T1, Claudin 18.2 (CLDN18.2), expressed on …; assay: FACS, MFI on CHOS-CLDN18.2 over MFI on CHOS-CLDN18.1, 10 µg/ml
Experimental: The initial concentration of the antibody was 20 μg/mkit was diluted at 1:4, and incubated at 4° C. for 60 min.

[17] = target: T1, Claudin 18.2 (CLDN18.2), expressed on …; assay: FACS, CHOS-CLDN18.2 cells, 0.313 µg/ml; remark: listed apart in the source
Experimental: as §1

[18] = target: T1, Claudin 18.2 (CLDN18.2), expressed on …; assay: FACS, CHOS-CLDN18.2 cells, 20 µg/ml; remark: listed apart in the source
Experimental: as §1

FACS reading [1]: 63700 | FACS reading [2]: 63700 | FACS reading [3]: 63700 | FACS reading [4]: 732 | FACS reading [5]: 6950 | FACS reading [6]: 105000 | FACS reading [7]: 72300 | FACS reading [8]: 63700 | FACS reading [9]: 51000 | EC50 [10]: 0.27 mg/L | max [10]: 88600 | FACS reading [11]: 2830 | FACS reading [12]: 2830 | FACS reading [13]: 105000 | FACS reading [14]: 105000 | FACS reading [15]: 2830 | CLDN18.2/CLDN18.1 (MFI ratio) [16]: 104 | FACS reading [17]: 51000 | FACS reading [18]: 72300
B1: QP024025 (antibody, human IgG1, V domains shown)
VH: QVQLQQPGAELVRPGASVKLSCKASGYTFTSYWINWVKQRPGQGLEWIGNIYPSDSYTNYNQKFKDKATLTVDKSSSTAYMQLSSPTSEDSAVYYCTRSWRGNSFDYWGQGTTLTVSS
VL: DIVMTQSPSSLTVTAGEKVTMSCKSSQSLLNSGNQKNYLTWYQQKPGQPPKLLIYWASTRESGVPDRFTGSGSGTDFTLTISSVQAEDLAVYYCQNDYSYPFTFGSGTKLEIK
notes: also called IMAB362; 175D10(IMAB362)
